In the DeepSol protein solubility set:

experiment: soluble on expression in E. coli; label from the status in PepcDB or PDB records

Question: Which “soluble on expression in E. coli” value does the source give for “MGSDKIHHHHHHMPLPRGSSLVRIPGNIPVGLDMKERLAYFEYDPLVSGQRAYAVAALLPQGFTRTLLPACVGSSGEALLPLLGYAAVGLKEGKIYVAAVQSDEHRKWHPHYYNTERLPAKINRMLKKYPGNMILHQLARCSLEYGCFTAQNIFYQRWEGGIPSMKACNAACIACISEDHCGTASPQNRLDFAPTVQEIVEVASEHLLRARDAIISFGQGCEGEPALNGKRLSQAIRRIRDLCAQGTINMNTNAGYCEGVKLMTDAGMDSMRVTIFSAIEENYMTYHCPQDYSLADVEYSITYAREHGVKISLNLLTFPGFTDRMEEVEALLEFVRKNQVDMIQFRNLNIDPEFLMRIFPGKSPVLGISNFVKLLESELPGVRIGSYTHPVHR” here?
Answer: not soluble

Question: With “MVARISVGKNLYGALAYNQNKVDEGGAKVLSAHLLRYPEDGRFRPDESVRQFLEWMPNHYRTEKPVIHISLNPHPDDVLTDGQLAEIGREYMQRLGYGNQPYLVFKHEDIGRHHIHIVSLRVDSEGRKVSDKFEYRRSKEITELLEQKYGLHPAEGRKKGEEWQLKPVDVAKGDIKRQIACTLKPLLELYSFRTMGELRALLSLYNIGVEEVKGEIGGRTYHGILYTALDGNGETAATPIKSSRLGRTAGAQQLDRKMRESAARIKSAPCRERLRPLVADALRQSVDERDFRDRLAKEQIDLVLRRNGTDRIYGVTFIDHRSRTVLNGSRLGKEFSANMLNGHFQEQPPNSLSPLLPPVPSAVASGNGEKIPGGLLSDMEPELNYVPRYPKLLKPDKKKRRRRYGRQDLEHHHHHH” as the sequence, how does the “soluble on expression in E. coli” value read?
Answer: soluble

Question: Which “soluble on expression in E. coli” value does the source give for “MGSDKIHHHHHHMNLSNDSLNKSDISPAVAQQAVGWLLEMQEGALDARRQHAWQSWLNGNSEHQRAWAHMQRVNQRLSGLSSPLAHAALGAPKSAGRRHALKLLLLLGAGSMAGWSLREQIALQPLLADYNSGVGEQRKVALSDGSRVQLNTASAVDVRFDAQQRLIKLLQGELLMSASADARPLNLLSAQGTVRASTGSSRFNLRQLDGRTQLAVFAGAIEVAPANKSGPGLMLRASQQVTFGRDAWDSVRTVDANSGAWADGMLVASRMKLSDFLAELGRYRRGRLNCDANVADLLISGSYPLADSERILDMLQLALPVRVQRFTRYWVNVQARV” here?
Answer: not soluble

Question: For “SADLLALLRDFTIHNREIKEDGDDIIFDNYAWNKSSKTNYIVWGTDKHGLIKEYYPLESIVYFLKNINLSHAQFVRQAAANGIFGIRLPDRQKLLDYLQGKITTCEAIDHSVPVDISQRRLVILQNNDKDPNDATGEPSSKRLCLEDGNSIDMANEGHSTDQQNEINLKESQRLAAKLQLPPGGKMTSDLYQNDPSKASTLIEHIPVDKIQMLRAKFRANHQQTIKPDESDVVPDKGKPLKSAIDAEEPIKPFVSKIQLGVTKNFVKEIMAREYTWRTRTTVLESHGKQFFDSVVLGTLKSVKLKEENLQHHTQRIGPHTPFPASNGHAGNVQQPAQAPTHYSRYDQERFTGAGQDTAGFKIDTMGTYHGKGLSSMMTDGSQANLTSRDPRANRQPAPRGLPPVSPGATPVDTGKGVTKANRAKSRVPIIIIPAAPTSLITMYNAKEILQDLRFEKTEDKKANGCRRDNDLLIQRLKSDGRTVPYRVIDQPNKLNREDWDRVVAVFVQGPAWQFKNWPIGSDPVEIFSLVKAFHLKYAHMPLHPDVKKWNVHVIQLDDHRHLDKANFQQIWDILDRHMV”, which “soluble on expression in E. coli” value is on record?
Answer: soluble

Question: With “MGSDKIHHHHHHMYTLNILKDSTAVMYEKMTFPAFQYVLQEINSKESLIAIAASYQEEPVGLVLAEIRTYNQSAEVLSLFVEPSHRCAGIGTNLLNRLETELTYRRCKKVELVYMTGKSTTPALENLLHKCGWTSPQPRMLVCKGEMEKGIQAPWLKQYSQLPAAYTIFPWREITTQERQAIERQQATQPWIPEDLIPFKYDKQIEPLNSLGLRYQGQVVGWLISHRIFPDTIRYTCAFCRPDIQKKGRMITLFYEAAKLQLNAKIPHFIWTTPMNHQSMVAFVKYRCLPYLTSIQETRIISKLLLG” as the sequence, how does the “soluble on expression in E. coli” value read?
Answer: not soluble

Question: For “MAHHHHHHMLSRLSERCTIATGLEQVLRHYVWSAAWLRDAEPAAAASENIDLSGLMERAGRAAYDVFANLYTSQKHWLILVGSGNNGGDGYVIARHAREAGKIVTVLRMPHSKPLPTEAASAQHAWKAVGGTESTMSPGAPLQLPADVDLIVDGLLGTGICGPPREQYADVIRHINGLPVPRVAIDIPSGLNAETGEAAGACVKADHTATFICLKPGLLTGQAKDYVGQLHYRSLGLEDWMTAPERMRVALCRRVALDDVYEYFGIRRSALAHKGSCGKAILVGGDHGFGGAALMSAEACVTVGAGLTRVLTRPEYAAPLLTRCPEAMVTAVETDTGEQLKQQMLEAFEWASTLAVGPGLGTGAYGQAALTAALRHAELHQDKTLVLDADALNLLAGCLHGREGGAAAGARKHLPVLPNSIITPHPGEAARLLDCRVADVEKDRLAAARRLAAILGGTCLLKGPGTIVHCHSSAKTAIVDAGNAGMASGGMGDVLTGLLAGLAAQRMHDTFDTTCAGALVHGVAADMVAAEDGRGTRGIRATELIHRVPLIVNASGPSPASRQRPSGQ”, which “soluble on expression in E. coli” value is on record?
Answer: soluble

Question: For “MLCDSLPTASRTAAAILNLAQREDVTAEALAQLIQTDPALTGRILRFANAPAQGTRRPVASVIDAIDLVGLPAVRQFALSLSLIDAHREGRCEAFDYAAYWQKSLARAVALQSITAQASTVAPKEAFTLGLLADVGRLALATAWPEEYSECLRKADGEALIALERERFATDHDELTRMLLTDWGFPQVFIDALQLSQQDEIRDEGRTGRFARQLALAQHIADHRLAEEPRRAALSPLLRAEARRCGLGDEDLARLLADPPADWLDWTRTIGLPGDAPTGGAEPSRPPPQTDEKLHVLLADDDPIMLARLSRQLEADGHHVASRRDGETALAYALEHQPEMVITDWHMKPMNGLELCRALRESALGGNVYIVMLTASESEDALVEAFGAGIDDYVIKPPSVRVLKARIRAGQRIITLHKKLARERKEIERYSSELAAANRRLELMAHTDQLTGLPNRRYAMDRLEREWAQARTFDRPLSIMMLDLDWFKSINDSLGHDAGDQALVHAARVMRETVRTSDVVCRMGGEEFLIIIPDTAGPAAIQTAERVRSAVEQQQPAKLKLSRPLTASIGVADSTSAPSLKDLLLKADNALYQVKQNGRNGVRYAGLAAALEHHHHHH”, which “soluble on expression in E. coli” value is on record?
Answer: soluble

Question: For “MSALKSFTVNFHQEDNAKATTVHKLSEEDFNKATEKGTRHLFDLDTNVGFFVFFDAEDAEGNDQYLMLQYEGDHEEPTACYGFDLKLYYQFLALYLNDLEFQGETDEEEEEYGPIHHLAHLLYHIVEDGKSIEV”, which “soluble on expression in E. coli” value is on record?
Answer: not soluble

Question: With “MVTFREMDISDYNEVIALWATTENVSLRDADSRPNIEAYLKRNQGLSFVAVSDSLVIGAVLVGTDGRRGYVQHLAVSSDFRGQGIGKSLIQKATDALSRIGISKTHLFVLIENVVAQDFYTKLDWYPRDEIRMFSYNSSSNPEV” as the sequence, how does the “soluble on expression in E. coli” value read?
Answer: not soluble

Question: With “MGPAPRILELFYDVLSPYSWLGFEVLCRYQHLWNIKLQLRPTLIAGIMKDSGNQPPAMVPRKGQYIFKEIPLLKQFFQVPLNIPKDFFGETVKKGSINAMRFLTTVSMEQPEMLEKVSREIWMRVWSRDEDITEYQSILAAAVKAGMSTAQAQHFLEKISTQQVKNKLIENTDAACKYGAFGLPTTVAHVDGKTYMLFGSDRLELLAYLLGEKWMGPVPPTANARL” as the sequence, how does the “soluble on expression in E. coli” value read?
Answer: soluble

Question: Which “soluble on expression in E. coli” value does the source give for “MIIKKIIDLTMPITAQTPVYPGDPKPKIEPAATFAQDGYHVSRLVLGSHSGTHVDAPFHFCEHGWRLDDVPLTYFLGRGVVIDATGKAEGEAVTMADAAPYIPKLSPGTIVLFHTGWSQYAGTKRYFRHPYVAPDVIEAMLERGVRTFLIDALNIDPPDGSLFHAHELILGANGVIGENFVNFERIDFDDPYIIALPLSLPGCERFARSGGGGAVGVTKKGDTAPHML” here?
Answer: not soluble

Question: For “MSSILIIGAGPTGLGAAHRLRGLGLENWHLFESTEQIGGLSASFVDDHGFTWDVGGHVLFSHYDYFDRVVEEALDGAWYEHQRECWVRIRETWVPYPFQNNIRHLPPDALEECLAGLKGLAGSPSLAANFREWMDRVFGAGIVKHFMEPYNRKVWGVPLHEMSREWIGERVSVIDLARIEKNIAEKTDDVNWGPNNTFKFPHKGGTGAIFSSIATRFQDRISFSHELTEVNLAARELGFSNGRRERYDSLITTIPLDIFIGLCRDVPESVREAASRLVHNSGLIVGIGVEGERRDSKCWMYFPEDNCPFYRVTNFHNYSPWNVPNGDTSRFFSLMCETTSSPHKPVNRAEIVETTIQGLINAGMLTESERERIISRYVIDIPYSYPVPTVGRDEALAVINPFLESQGVYSRGRFGAWKYEVGNMDHSFMQGVEVADRILNGADEPTVTGKGGDRLEHHHHHH”, which “soluble on expression in E. coli” value is on record?
Answer: not soluble
